Data as given in patent US20220008508A1, “RELAXIN RECEPTOR 1 FOR USE IN TREATMENT AND PREVENTION OF HEART FAILURE” (Universität Heidelberg, priority 2018, published 2022).

What was measured:
huRXFP1 = target: T1, huRXFP1 (Homo sapiens, UniProt Q9HBX9); assay: Pressure-volume loop hemodynamics in huRXFP1 TG animals after RLN administration; format: in vivo, mouse; conditions: RXFP1 transgenic animals vs WT animals, 10 μg RLN I.P.
T1 construct: FLAG huRXFP1 was cloned onto a place holder plasmid; expressed in transfected cells; host or cells: transgenic mice, cardiomyocyte expression under the alpha-MHC promoter (in vivo)
T1 sequence (Q9HBX9 with tags, fused parts or gaps): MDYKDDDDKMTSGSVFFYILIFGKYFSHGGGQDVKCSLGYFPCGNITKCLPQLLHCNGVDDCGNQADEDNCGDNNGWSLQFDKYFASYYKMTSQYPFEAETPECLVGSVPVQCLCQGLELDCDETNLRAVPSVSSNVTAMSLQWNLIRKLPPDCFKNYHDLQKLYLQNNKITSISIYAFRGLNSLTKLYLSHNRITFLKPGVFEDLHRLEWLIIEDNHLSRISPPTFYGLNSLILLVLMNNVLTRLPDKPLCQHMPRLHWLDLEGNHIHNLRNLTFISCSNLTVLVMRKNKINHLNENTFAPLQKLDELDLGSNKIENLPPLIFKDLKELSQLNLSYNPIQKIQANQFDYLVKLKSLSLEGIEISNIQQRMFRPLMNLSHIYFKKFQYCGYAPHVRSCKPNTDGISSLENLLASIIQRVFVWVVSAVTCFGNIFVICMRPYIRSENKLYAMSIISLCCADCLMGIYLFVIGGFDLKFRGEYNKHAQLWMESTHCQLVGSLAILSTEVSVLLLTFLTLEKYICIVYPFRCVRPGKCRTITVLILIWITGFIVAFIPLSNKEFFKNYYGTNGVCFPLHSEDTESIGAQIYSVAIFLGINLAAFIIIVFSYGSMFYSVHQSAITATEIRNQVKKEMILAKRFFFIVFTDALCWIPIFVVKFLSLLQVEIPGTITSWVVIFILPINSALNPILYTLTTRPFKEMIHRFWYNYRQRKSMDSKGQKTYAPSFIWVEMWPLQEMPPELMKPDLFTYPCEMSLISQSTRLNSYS
Protocol: Pressure-volume loop (PV loop) measurement was performed modified from Abraham and Mao (Abraham and Mao (2015), J. Vis. Exp. (103): e52942). The animal was anesthetized according to the body weight with a cocktail of medetomidine, midazolam, and fentanyl intraperitoneally 15 minutes prior to the measurements. After the righting reflex was lost, the mouse was secured to the operating table with surgical tape. Prior to the measurement, the catheter tip was equilibrated in warm saline for 30 minutes. The neck and chest area was cleaned with ethanol and the fur was removed. An incision was made over the right carotid from mandible to sternum. The surrounding tissue was dissected to expose the right carotid, and the vagus nerve, which runs adjacent to the carotid, was […]. Sterile 6.0 silk suture was placed around the distal end (away from the chest) of the carotid artery, tied and secured. An additional suture was placed below the first suture on the carotid artery. The second suture was loosely tightened and clamped the carotid artery proximally to the second suture. […] The PV loops were continuously recorded throughout the experiment until 10 minutes after administration of the tested substances.
minimum were calculated according to the manufacturer's recommendation (Transonic). […]

[1] = Circulating plasma levels of recombinant relaxin H2 by ELISA; format: in vivo, mice; conditions: all animals receiving RLN by osmotic pump
Protocol: Circulating plasma levels of recombinant relaxin H2 were measured using a ready to use relaxin H2 Quantikine ELISA kit from R&D Systems (DLR200). Plasma samples were diluted 1:200 to stay within the detection range of the assay. 50 μL of negative control, positive control, standard and diluted samples were used for the measurement.

RXFP1 receptor = target: T2, RXFP1 receptor (Rattus norvegicus, UniProt Q6R6I6); assay: cAMP production (cAMP Glo assay) in RXFP1-transduced NRVMs stimulated with RLN; format: cell-based
T2 construct: expressed in transfected cells; host or cells: neonatal rat ventricular cardiomyocytes (NRVMs) transduced with AAV6-RXFP1
T2 sequence (Q6R6I6 1-758): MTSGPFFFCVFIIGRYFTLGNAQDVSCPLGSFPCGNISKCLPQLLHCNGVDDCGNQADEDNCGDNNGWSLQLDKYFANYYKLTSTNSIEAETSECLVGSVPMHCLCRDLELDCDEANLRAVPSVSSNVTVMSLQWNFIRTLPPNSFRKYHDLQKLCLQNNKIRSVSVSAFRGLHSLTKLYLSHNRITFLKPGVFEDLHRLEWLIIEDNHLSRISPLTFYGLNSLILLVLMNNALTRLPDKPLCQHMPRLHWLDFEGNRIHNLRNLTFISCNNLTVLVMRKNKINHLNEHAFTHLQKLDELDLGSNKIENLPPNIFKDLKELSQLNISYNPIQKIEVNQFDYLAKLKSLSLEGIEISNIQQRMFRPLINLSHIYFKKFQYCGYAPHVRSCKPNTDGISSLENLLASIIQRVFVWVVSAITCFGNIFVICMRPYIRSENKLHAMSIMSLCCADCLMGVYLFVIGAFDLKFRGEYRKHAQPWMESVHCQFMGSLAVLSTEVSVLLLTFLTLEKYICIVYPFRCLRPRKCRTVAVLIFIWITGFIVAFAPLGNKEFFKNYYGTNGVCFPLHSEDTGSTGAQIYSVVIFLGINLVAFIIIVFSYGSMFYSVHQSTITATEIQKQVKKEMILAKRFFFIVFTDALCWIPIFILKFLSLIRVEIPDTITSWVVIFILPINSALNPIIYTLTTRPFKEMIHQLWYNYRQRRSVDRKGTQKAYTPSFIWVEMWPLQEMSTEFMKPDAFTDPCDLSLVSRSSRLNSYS
Protocol: Manufacture's manual was followed. […] The luminescence was measured with a luminometer.

Substance: RLN: recombinant relaxin H2 peptide hormone, RXFP1 agonist
- Heart rate (HR) (huRXFP1): significant increase
- dP/dt maximum (huRXFP1): significant increase
- RLN plasma levels [1]: elevated
- RLN concentration at peak stimulation of the RXFP1 receptor (cAMP) (RXFP1 receptor; 30 minutes): 10 nM
- cAMP accumulation with higher recombinant RLN concentrations (RXFP1 receptor; above 10 nM RLN): no further increase
